± gives the standard deviation of the averaged measurements.
Test: total protein half-life in vivo (active degradation + dilution); higher = more stable protein
[1] = E. coli NCM3722 delta-clpP, growth: N-lim chemostat, doubling time 6 h
[2] = E. coli NCM3722 delta-hslV, growth: N-lim chemostat, doubling time 6 h
[3] = E. coli NCM3722 delta-smpB, growth: N-lim chemostat, doubling time 6 h
[4] = wild type E. coli NCM3722, growth: N-lim chemostat, doubling time 6 h
[5] = wild type E. coli NCM3722, growth: N-lim chemostat, doubling time 12 h
[6] = wild type E. coli NCM3722, growth: P-lim chemostat, doubling time 12 h
[7] = E. coli NCM3722 delta-clpP delta-lon delta-hslV, growth: N-lim chemostat, doubling time 6 h
[8] = E. coli NCM3722 delta-lon, growth: N-lim chemostat, doubling time 6 h
[9] = wild type E. coli NCM3722, growth: C-lim chemostat, doubling time 3 h
[10] = wild type E. coli NCM3722, growth: C-lim chemostat, doubling time 6 h
[11] = wild type E. coli NCM3722, growth: C-lim chemostat, doubling time 12 h
[12] = wild type E. coli NCM3722, growth: P-lim chemostat, doubling time 6 h

Sequence	total protein half-life in vivo [1] [h]	total protein half-life in vivo [2] [h]	total protein half-life in vivo [3] [h]	total protein half-life in vivo [4] [h]	total protein half-life in vivo [5] [h]	total protein half-life in vivo [6] [h]	total protein half-life in vivo [7] [h]	total protein half-life in vivo [8] [h]	total protein half-life in vivo [9] [h]	total protein half-life in vivo [10] [h]	total protein half-life in vivo [11] [h]	total protein half-life in vivo [12] [h]
MFNEVHSIHGHTLLLITKSSLQATALLQHLKQSLAITGKLHNIQRSLDDISSGSIILLDMMEADKKLIHYWQDTLSRKNNNIKILLLNTPEDYPYRDIENWPHINGVFYSMEDQERVVNGLQGVLRGECYFTQKLASYLITHSGNYRYNSTESALLTHREKEILNKLRIGASNNEIARSLFISENTVKTHLYNLFKKIAVKNRTQAVSWANDNLRR	1.72 ± 0.18	0.584	0.772	0.875	1.84	1.48 ± 0.36						
MFNSDNLRLDGKCAIITGAGAGIGKEIAITFATAGASVVVSDINADAANHVVDEIQQLGGQAFACRCDITSEQELSALADFAISKLGKVDILVNNAGGGGPKPFDMPMADFRRAYELNVFSFFHLSQLVAPEMEKNGGGVILTITSMAAENKNINMTSYASSKAAASHLVRNMAFDLGEKNIRVNGIAPGAILTDALKSVITPEIEQKMLQHTPIRRLGQPQDIANAALFLCSPAASWVSGQILTVSGGGVQELN [P0AET8]	4.39 ± 0.73	4.72 ± 0.18	4.27 ± 0.21	4.57 ± 0.14	7.309 ± 0.022	11.8 ± 0.3	4.91 ± 0.11	5.48 ± 0.66	3.53 ± 0.6	5.51 ± 1.1	10.2 ± 1.2	5.64 ± 0.42
MFQLSVQDIHPGEKAGDKEEAIRQVAAALVQAGNVAEGYVNGMLAREQQTSTFLGNGIAIPHGTTDTRDQVLKTGVQVFQFPEGVTWGDGQVAYVAIGIAASSDEHLGLLRQLTHVLSDDSVAEQLKSATTAEELRALLMGEKQSEQLKLDNEMLTLDIVASDLLTLQALNAARLKEAGAVDATFVTKAINEQPLNLGQGIWLSDSAEGNLRSAIAVSRAANAFDVDGETAAMLVSVAMNDDQPIAVLKRLADLLLDNKADRLLKADAATLLALLTSDDAPTDDVLSAEFVVRNEHGLHARPGTMLVNTIKQFNSDITVTNLDGTGKPANGRSLMKVVALGVKKGHRLRFTAQGADAEQALKAIGDAIAAGLGEGA	5.64 ± 0.69	5.85 ± 0.086	5.94 ± 0.085	5.99 ± 0.57		11.97 ± 0.033	6.229 ± 0.029	6.16 ± 0.26	2.96 ± 0.13	5.74 ± 0.56	12.3 ± 1.2	5.71 ± 0.078
MFQQQKDWETRENAFAAFTMGPLTDFWRQRDEAEFTGVDDIPVRFVRFRAQHHDRVVVICPGRIESYVKYAELAYDLFHLGFDVLIIDHRGQGRSGRLLADPHLGHVNRFNDYVDDLAAFWQQEVQPGPWRKRYILAHSMGGAISTLFLQRHPGVCDAIALTAPMFGIVIRMPSFMARQILNWAEAHPRFRDGYAIGTGRWRALPFAINVLTHSRQRYRRNLRFYADDPTIRVGGPTYHWVRESILAGEQVLAGAGDDATPTLLLQAEEERVVDNRMHDRFCELRTAAGHPVEGGRPLVIKGAYHEILFEKDAMRSVALHAIVDFFNRHNSPSGNRSTEV	> 8	4.87 ± 0.73	4.57 ± 0.31	4.42 ± 0.28	8.56 ± 0.72	10.8 ± 0.91	5.43 ± 1.2	4.93 ± 0.22	3.13 ± 0.43	6.52 ± 0.38	11.3 ± 1.8	6.17 ± 0.69
MFRPFLNSLMLGSLFFPFIAIAGSTVQGGVIHFYGQIVEPACDVSTQSSPVEMNCPQNGSIPGKTYSSKALMSGNVKNAQIASVKVQYLDKQKKLAVMNIEYN									0.288	0.225		
MFSALRHRTAALALGVCFILPVHASSPKPGDFANTQARHIATFFPGRMTGTPAEMLSADYIRQQFQQMGYRSDIRTFNSRYIYTARDNRKSWHNVTGSTVIAAHEGKAPQQIIIMAHLDTYAPLSDADADANLGGLTLQGMDDNAAGLGVMLELAERLKNTPTEYGIRFVATSGEEEGKLGAENLLKRMSDTEKKNTLLVINLDNLIVGDKLYFNSGVKTPEAVRKLTRDRALAIARSHGIAATTNPGLNKNYPKGTGCCNDAEIFDKAGIAVLSVEATNWNLGNKDGYQQRAKTPAFPAGNSWHDVRLDNHQHIDKALPGRIERRCRDVMRIMLPLVKELAKAS	5.3 ± 0.29	5.24 ± 0.83	4.38 ± 0.053	5.37 ± 1	9.09 ± 1.6	7.1 ± 0.99		5.44 ± 0.031	2.58 ± 0.67	2.46		4 ± 0.27
MFTGSIVAIVTPMDEKGNVCRASLKKLIDYHVASGTSAIVSVGTTGESATLNHDEHADVVMMTLDLADGRIPVIAGTGANATAEAISLTQRFNDSGIVGCLTVTPYYNRPSQEGLYQHFKAIAEHTDLPQILYNVPSRTGCDLLPETVGRLAKVKNIIGIKEATGNLTRVNQIKELVSDDFVLLSGDDASALDFMQLGGHGVISVTANVAARDMAQMCKLAAEGHFAEARVINQRLMPLHNKLFVEPNPIPVKWACKELGLVATDTLRLPMTPITDSGRETVRAALKHAGLL [P0A6L2]	3.67 ± 0.84	3.03 ± 0.44	3.42 ± 0.18	3.43 ± 0.14	5.28 ± 0.1	11.1 ± 0.94	4.22 ± 0.18	4.05 ± 0.09	3.09 ± 0.099	5.47 ± 0.57	11.4 ± 0.21	5.72 ± 0.24

From the supplement of paper PMC11246515
